Test results from the nanobody polyreactivity screen of Harvey et al. (2022).

Assay: yeast display, Sf9 membrane polyspecificity reagent, FACS + sequencing; frameworks hold sequencing errors
In short: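 After 36–48 hours of galactose induction, yeast (Saccharomyces cerevisiae BJ5465) displaying a synthetic nanobody library were stained at 4 °C for 1 hour with 10% biotinylated, detergent-solubilized Sf9 membrane reagent. Streptavidin microbeads enriched the stained cells before FACS sorting into low and high (top ~1%) gates on anti-HA and streptavidin fluorescence. Each clone's polyreactivity label reflects its gate of origin.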

Row | Sequence | polyreactivity (PSR sort gate)
1 | QDQIVDSGGGLVQAGVSLRLSCAASGFTFGINTLGWYRQAPGKERELVAGISRTSSTYADSVKGRFTISRDNAKNTVYLQMNSLNAEDTAVYYCAAEYFQTRFGSWRKRYVSWGQGTQVTVSS | high polyreactivity
2 | QVQLVESGGGLVQAGGSLRLSCAASGSIIGRNAMGWYRQAPGKERELVAAISTRGGRTYYADSVKGRFTISRDNAKNTVYLQMNSLKPEDTAVYYCADTYQYLKSGYYWGQGTQVTVSS | high polyreactivity
3 | QVQLVESGGGLVQAGGSLRLSCAASGFTFGRYTMGCYRQEPGKERELVAAISKSGSGTFYADSVKGRFTISRDNAKNTVYLQINSLKPEDTAVYYCAARYRHFGNQVRTSHSIMYYWGQGTQVTVSS | high polyreactivity
4 | QVQLVESGGGLVQAGGSLRLSCAASGGIFIRNAMGWYRQAPGKERELVATISNAGSTYADSVKGRFTISRDNAKNTVYLQMNSLKPEDTAVYYCNRDDWTYPVSQGLQEYDYWGQGTQVTVSS | low polyreactivity
5 | QVQLVESGGGLVQAGGSLRLSSAASGSIFYGNTMGWYRQAPGKERELVAAIRSVGRTYYADSVKGRFTISRDNAKNTDSLQMNSLKPEDTAVYYCAADPRSYFTSEYWGQGSQVTVSS | low polyreactivity
6 | QVQLVESGGGLVQAGGSLRLSCAASGSTIGRNAMGWDRQAPGNERELVASITDSSGSPNYADSVKGRFTISRDNAKNSVYLQMHSLKPEDTAVYYCATGYYYYTRYRYHTKYYSWGQGTQVTVSS | high polyreactivity
7 | QVQLVESGGGLVQAGGSLRLSCAASGSIFFYYTMGWYRQAPGKEREMVAAISVGGSTYYADSVKGRFTISSDNAKNTVYLQMKSLKPEDTAVYYCNAVPAKGYVTVVRYYYWGLGTQVTVSS | low polyreactivity
8 | QVQLVESGGGLVQAGGSLRLSCAASGLIFRKYAMGWYRQAPGKERELVAAISRSGGSTYYADSVKGRFTISRDNAKTTVYLQMNSLKPEDTAVYYGAAQQHYGDGYWGQGTQVTVSS | high polyreactivity
9 | QVQLVESGGRLVQAGGSLRLSCAASGRTFIKYAMGWYRQAPGKERELVAAISRNGGSTNYADSVKGRFTISRDNAKNTVYLQMNSLKPEDTAVYYCAAVGTVSRTVGYNYWGQGTQVTVSS | high polyreactivity
10 | QVQLVESVGGLVQAGGSLRLSCAASGSTSSYYTMGWYRQAPGKERELVAYADSVKGRFTISRDNAKNTVYLQMNSLKPEDTAVYYCAAPRTYYSELTSPYDYWGQGTQVTVSS | low polyreactivity
11 | QVQLVDSGGGLVQAGGSLRLSCAASGSTLNSYVIGWYRQAPGKERELVATIRSGSSTNYADSVKGRFTISRDNAKNTVYLQMNSLKPEDTAVYYCAADAYSLCYDSWGQGTQVTVSS | low polyreactivity
12 | PVQLVESGGGLVQAGGSLRLSCAASGFTFFYYAMGGYRQGPGKERELVAALNWSGGRTYYADSVKGRFTISRDNAKNTVYLQRNSLKPEDTAVYYCAVDRSWSTRYPAYPGGYWGQGTQVTVSS | high polyreactivity
13 | QVQLVDSGGGLVQAGGSLRLSCAASGLIFEVYAMGWYRQAQGKERELVAAISWRGGSTDYADSVKGRFTISRDNAKNTVYLQMNSLKPEDTAFYYCAKGYRGRTTAGNLWEFDYWGQGTQVTVSS | high polyreactivity
14 | QVQLVESGGGLVQAGGSLRLSCAASGLIFGYYTMGWYRQAPGKEREFVAAISRGGGSTYYADSVNGRFTISRDNAKNTVYLHMNSLKPEDTAVYYCAAVVYGQVQPAYDYWGQGTQVTVLS | high polyreactivity
15 | QVQLVESGGGLVQAGGSLRLSCADSGGTFGNTAMGLYRQAHGKEMELVAAINRSDGGTYYADSEKCRFTISRDNAKNTVYLQMNSLKPEDTAVYYCNADDFYYDEPYDFWGQGTQVTVSS | low polyreactivity
16 | QVQLVESGGGLVQAGGSLRLSCAASGRIFVRYTMGWYRQAPGKERELVAAITKRGGSTYYADSVKGRFTISRDNAKNTVYLQMNSLKPEDTAVYYCATDGLGYNRPQDEYWGLGTQVTVSS | high polyreactivity
17 | QVQLVESGGGLVQAGGSLRLSCAASGFTFYKNTMGWYRQAPGKERELVAAISYRGGTYYADSVKGRFTISRDNAKNTVYLQMNSLKPQDTAVYYCNARYRGKYSSYGYWGQGTQVTVSS | high polyreactivity
18 | QVQLVESGGGLVQAGGSLRLSCAASVFIFGLYVMGWYRQAPGKERELVAAITFNGGSTYADSVKGRFTISRDNAKNTVYLQMNSLKPEDTAVYYCNAGRAVYRYWYKYVYWGQGTQVTVSS | high polyreactivity
19 | QVQLVESGGGLVQAGGSLRLSCAASGLTFYQYAMGWYRQAPGKERELVAGISSGGSTKYADSVKGRFTISRDNAKNTVYLQMNSLKPEDTAVYYCAARFCAFRKGYYYWGQGTQVTVSS | high polyreactivity
20 | QVQLVESGAGLVQAGGSLRLSCSAYGFIFGFYAMGWSRQAPGKERELVADITSSGGSTYYADSVKGRFTLSRDNAKNTVYLQMNSLKPEDTAVYYCAADGWWHNFYPGNGLDYWGQGTQVTVSS | low polyreactivity
21 | QVQLEESGGGLVQAGGSLRLSCAASGRTFYGKAMGWYRNAPGKEWEFVASISYSGTTTYYADSVKGRFTISRDNAKNTVYLKMNSLKPEDTAVYYCAVESYPTDYGPRFGSWGQGTQVTVSS | low polyreactivity
